This data set concerns the molecule itself. Nature of the data set: native gel or EMSA; Native-PAGE, Novex 4-20% Tris-glycine native gel, 1 ug protein a lane, before and after freeze/thawing at -80 C.

We go through 1 protein from article PMC3782427, “The N-Terminal Region of the Human Autophagy Protein ATG16L1 Contains a Domain That Folds into a Helical Structure Consistent with Formation of a Coiled-Coil” (PLoS ONE, 2013).

Broadly, the stoichiometry N is a count of units in the complex or per binding partner.

B1: human ATG16L1 coiled-coil domain construct 3 (CCD3-FLAG-6His), residues M126-A207 (domain or fragment, UniProt Q676U5-1 126-207, looked up)
chain: MNEAKIAECLQTISDLETECLDLRTKLCDLERANQTLKDEYDALQITFTALEGKLRKTTEENQELVTRWMAEKAQEANRLNA
notes: human ATG16L1 isoform 1 (NP_110430.5, full length M1-Y607), coiled-coil domain, residues M126-A207; amplified from pCMV-FLAG-ATG16L1; Expressed as GST-CCD3-FLAG-6His with a TEV site between GST and the insert; Calculated molecular weight printed as 11.3 kDa; also called CCD3FH; minimal coiled-coil domain; source: E. coli Rosetta 2, purified (glutathione sepharose, on column TEV cleavage, HIC); …
Consider B1, for which the “stoichiometry N” value turned out to be 2.
